T1: 2Ig-B7H3-mFc mutant R127A (human, UniProt Q5ZPR3-2 29-248, limits assumed)
T1 construct: not shown: mouse Fc
T1 sequence (looked up): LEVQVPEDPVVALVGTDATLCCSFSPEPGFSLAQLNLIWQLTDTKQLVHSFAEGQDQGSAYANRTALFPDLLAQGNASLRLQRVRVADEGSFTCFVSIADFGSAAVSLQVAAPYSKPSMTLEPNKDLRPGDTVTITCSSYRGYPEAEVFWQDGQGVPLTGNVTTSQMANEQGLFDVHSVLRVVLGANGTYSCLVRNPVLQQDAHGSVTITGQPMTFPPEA

T2: wild type 2Ig-B7H3-mFc (human, UniProt Q5ZPR3-2 29-248, limits assumed)
T2 construct: Q5ZPR3 canonical entry is the 4Ig isoform; the 2Ig form is its shorter isoform; also called 2Ig-B7H3-Fc; WT 2Ig-B7H3-Fc; not shown: mouse Fc
T2 sequence (looked up): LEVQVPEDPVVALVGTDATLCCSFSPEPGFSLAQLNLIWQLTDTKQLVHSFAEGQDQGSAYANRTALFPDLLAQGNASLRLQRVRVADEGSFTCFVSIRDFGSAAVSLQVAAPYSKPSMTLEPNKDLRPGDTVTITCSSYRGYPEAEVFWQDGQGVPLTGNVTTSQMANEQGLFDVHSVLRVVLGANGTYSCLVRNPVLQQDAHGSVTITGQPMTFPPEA

T3: 4Ig-B7H3 fused to mouse Fc (B7H3-mFc) (human, UniProt Q5ZPR3 29-466, limits assumed, biotinylated on primary amines (NHS-biotin) in the experiment of paragraph 316)
T3 construct: Expressed in DG44 CHO cells; also called 4Ig-B7H3-Fc; 4Ig-B7H3-mFc; not shown: mouse Fc
T3 sequence (looked up): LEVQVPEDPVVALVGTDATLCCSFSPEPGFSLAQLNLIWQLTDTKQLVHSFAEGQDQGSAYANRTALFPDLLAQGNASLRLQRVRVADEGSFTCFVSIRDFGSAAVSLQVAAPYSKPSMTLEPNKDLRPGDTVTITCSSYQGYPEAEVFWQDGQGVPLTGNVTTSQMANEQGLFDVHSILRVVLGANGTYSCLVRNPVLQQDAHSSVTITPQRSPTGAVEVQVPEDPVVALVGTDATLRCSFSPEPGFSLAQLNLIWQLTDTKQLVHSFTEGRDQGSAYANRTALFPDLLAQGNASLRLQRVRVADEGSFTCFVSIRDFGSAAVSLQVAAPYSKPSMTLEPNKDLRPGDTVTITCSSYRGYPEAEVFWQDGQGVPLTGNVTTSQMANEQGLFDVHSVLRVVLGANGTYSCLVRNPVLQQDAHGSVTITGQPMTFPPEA

T4: 2Ig-B7H3 without Fc fusion (human, UniProt Q5ZPR3-2 29-245, limits assumed)
T4 construct: also called 2IgB7H3 (R&D)
T4 sequence (looked up): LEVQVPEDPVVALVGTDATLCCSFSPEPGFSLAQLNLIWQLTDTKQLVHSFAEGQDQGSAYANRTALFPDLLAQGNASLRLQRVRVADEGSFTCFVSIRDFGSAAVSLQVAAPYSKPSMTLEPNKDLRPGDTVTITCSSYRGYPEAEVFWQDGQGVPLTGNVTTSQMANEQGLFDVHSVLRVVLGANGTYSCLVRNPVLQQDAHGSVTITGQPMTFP

T5: 4Ig-B7H3 (human, UniProt Q5ZPR3 27-461, limits assumed)
T5 construct: also called 4Ig-B73H3
T5 sequence (looked up): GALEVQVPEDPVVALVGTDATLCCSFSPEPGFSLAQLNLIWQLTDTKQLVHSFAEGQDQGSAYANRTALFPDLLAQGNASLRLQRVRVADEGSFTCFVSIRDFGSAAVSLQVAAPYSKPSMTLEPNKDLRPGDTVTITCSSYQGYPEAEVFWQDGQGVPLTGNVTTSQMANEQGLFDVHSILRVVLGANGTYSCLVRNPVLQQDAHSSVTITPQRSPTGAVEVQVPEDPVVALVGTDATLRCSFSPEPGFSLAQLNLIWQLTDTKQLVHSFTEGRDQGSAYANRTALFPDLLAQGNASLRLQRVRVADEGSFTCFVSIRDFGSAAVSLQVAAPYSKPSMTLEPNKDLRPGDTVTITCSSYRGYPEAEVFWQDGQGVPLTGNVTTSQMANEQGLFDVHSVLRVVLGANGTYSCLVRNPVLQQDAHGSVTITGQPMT


Tests used:
[1] = molecular target: T1, 2Ig-B7H3-mFc mutant R127A; test: SPR, 400 nM antibody over immobilized R127A mutant
wild type 2Ig-B7H3-mFc [2] = molecular target: T2, wild type 2Ig-B7H3-mFc; test: SPR, 400 nM antibody over immobilized WT 2Ig-B7H3-mFc
[3] = molecular target: 2Ig-B7H3-mFc mutant D128A (human) (UniProt Q5ZPR3); test: SPR, 400 nM antibody over immobilized D128A mutant
[4] = molecular target: T3, 4Ig-B7H3 fused to mouse Fc (B7H3-mFc); test: SPR, IgG on 4Ig-B7H3-Fc
Protocol: (§1) In brief, B7H3 antigen (either 2Ig-B7H3, 4Ig-B7H3, 2Ig-B7H3-mFc, 4Ig-B7H3-mFc), was directly immobilized onto the CM5 sensor chip via […]. Reference surface was set up for nonspecific binding and refractive index changes. […] The association and dissociation phase data were fitted simultaneously to a 1:1 model by using BIAevaluation 3.2. All the experiments were done at 25° C.

[5] = molecular target: B7H3 on B7H3-positive human tumor cells (M14, LAN-1, IMR-32, HeLa) (human) (UniProt Q5ZPR3); test: cell-binding assay of 131I-labelled antibody on LAN-1 cells
[6] = molecular target: T4, 2Ig-B7H3 without Fc fusion; test: SPR, IgG on 2Ig-B7-H3 without Fc fusion
Protocol: as §1

[7] = molecular target: T1, 2Ig-B7H3-mFc mutant R127A; test: SPR, IgG over immobilised 2Ig-B7H3-mFc R127A (left panel); antibody concentration not shown
wild type 2Ig-B7H3-mFc [8] = molecular target: T2, wild type 2Ig-B7H3-mFc; test: SPR, IgG on 2Ig-B7H3-mFc
Protocol: as §1

[9] = molecular target: T4, 2Ig-B7H3 without Fc fusion; test: SPR
4Ig-B7H3 [10] = molecular target: T5, 4Ig-B7H3; test: SPR
4Ig-B7H3 [11] = molecular target: T5, 4Ig-B7H3; test: SPR, IgG on 4Ig-B7-H3 without Fc fusion
Protocol: as §1

[12] = molecular target: B7H3 on B7H3-positive human tumor cells (M14, LAN-1, IMR-32, HeLa) (human) (UniProt Q5ZPR3); test: cell-based or functional assay
[13] = molecular target: T1, 2Ig-B7H3-mFc mutant R127A; test: SPR, mutant 2Ig-B7H3-mFc on chip
Protocol: (§2) In brief, B7H3 antigen (either 2Ig-B7H3, 4Ig-B7H3, 2Ig-B7H3-mFc, 4Ig-B7H3-mFc), was directly immobilized onto the CM5 sensor chip via […]. Reference surface was set up for nonspecific binding and refractive index changes. For analysis of the kinetics of interactions, varying concentrations of scFvs were injected at flow rate of 30 μl/min using running buffer containing 10 mM HEPES, 150 mM NaCl, 3 mM EDTA, and 0.05% Surfactant P-20 (pH 7.4). The association and dissociation phase data were fitted simultaneously to a 1:1 model by using BIAevaluation 3.2. All the experiments were done at 25° C.

4Ig-B7H3 [14] = molecular target: T5, 4Ig-B7H3; test: ELISA titled 'B7H3 ELISA'; legend: 4Ig-B7H3 (the ELISA method coats B7H3-mFc); IgG serially diluted
Protocol: (§3) B7H3-mFc (100 ng/well) or 2IgB7H3 (R&D, Minneapolis, Minn.) (25 ng/well) were coated on polyvinyl microtiter plates in PBS overnight. Plates were then blocked with 0.5% BSA in PBS at 150 μl per well for 1 h at room temperature. Antibodies were added in triplicates with serial dilution in 0.5% BSA. Following incubation for 1 h at room temperature and washing with PBS, HRP-mouse anti-human Fc antibody, HRP-streptavidin, or HRP-mouse anti-Flag antibody was added. After incubation for 1 h at room temperature and further washing, the color was developed and quantified using an ELISA plate reader at 490 nm.

wild type 2Ig-B7H3-mFc [15] = molecular target: T2, wild type 2Ig-B7H3-mFc; test: SPR, antigen on CM5 chip
Protocol: as §2

[16] = molecular target: T1, 2Ig-B7H3-mFc mutant R127A; test: SPR, IgG over immobilised 2Ig-B7H3-mFc R127A (right panel); antibody concentration not shown
[17] = molecular target: T4, 2Ig-B7H3 without Fc fusion; test: ELISA, right panel '2IgB7H3', scFv serially diluted 0.01-10 µg/ml
Protocol: as §3

4Ig-B7H3 [18] = molecular target: T5, 4Ig-B7H3; test: SPR (Biacore T-100), 4Ig-B7H3 on CM5 chip, scFv injected
Protocol: as §2

| Kd [4] [nM] | koff [4] [s⁻¹] | kon [4] [M⁻¹ s⁻¹] | in vitro immunoreactivity [5] [%] | Kd [6] [nM] | koff [6] [s⁻¹] | kon [6] [M⁻¹ s⁻¹] | Kd (wild type 2Ig-B7H3-mFc [8]) [nM] | koff (wild type 2Ig-B7H3-mFc [8]) [s⁻¹] | kon (wild type 2Ig-B7H3-mFc [8]) [M⁻¹ s⁻¹] | Kd (4Ig-B7H3 [11]) [nM] | koff (4Ig-B7H3 [11]) [s⁻¹] | kon (4Ig-B7H3 [11]) [M⁻¹ s⁻¹] | ADCC EC50 (µg/ml), 51Cr release, LAN-1 targets, human PBMC effectors [12] [µg/mL] | Fold change EC50 relative to ch8H9 (ADCC) [12] [fold] | Molecule | further results |
| --- | --- | --- | --- | --- | --- | --- | --- | --- | --- | --- | --- | --- | --- | --- | --- | --- |
| – | – | – | – | – | – | – | – | – | – | – | – | – | – | – | anti-B7H3 MAb MIH42 (Thermo Scientific Pierce) (antibody) | Relative binding (to WT) [1]: 76.1%; Max RU (wild type 2Ig-B7H3-mFc [2]): 2530 RU; Relative binding (to WT) [3]: 68.8% |
| 2 | 0.000114 | 55600 | 54 | 5 | 0.000171 | 33900 | 6 | 0.000232 | 38700 | 13 | 0.000298 | 23400 | 0.31 | 5 | hu8H9 3.1 IgG1 (antibody, V domains shown, also called clone 3.1) VH: QVQLVQSGAEVVKPGASVKLSCKTSGYTFTNYDINWVRQRPGQGLEWIGWIFPGDDSTQYNEKFKGKATLTTDTSTSTAYMELSSLRSEDTAVYFCARQTTGTWFAYWGQGTLVTVSS VL: EIVMTQSPATLSVSPGERVTLSCRASQSISDYLYWYQQKSHESPRLLIKYASQSISGIPARFSGSGSGSEFTLTINSVEPEDVGVYYCQNGHSFPLTFGQGTKLELKR | binding result [7]: no binding; fold enhancement in affinity against parental hu8H9 H3L3 [9]: 2.5 to 9 fold; fold enhancement in affinity against parental hu8H9 H3L3 (4Ig-B7H3 [10]): 2.5 to 9 fold |
| 1.2 | 5.49e-05 | 44800 | – | 2.7 | 8.73e-05 | 32100 | 0.76 | 3.79e-05 | 49600 | 7.7 | 0.000218 | 28300 | – | – | mouse/human chimeric 8H9 (ch8H9) IgG1 (antibody, V domains shown) VH: QVQLQQSGAELVKPGASVKLSCKASGYTFTNYDINWVRQRPEQGLEWIGWIFPGDGSTQYNEKFKGKATLTTDTSSSTAYMQLSRLTSEDSAVYFCARQTTATWFAYWGQGTLVTVSA VL: DIVMTQSPATLSVTPGDRVSLSCRASQSISDYLHWYQQKSHESPRLLIKYASQSISGIPSRFSGSGSGSDFTLSINSVEPEDVGVYYCQNGHSFPLTFGAGTKLELKR | binding result [13]: no binding (tested: 400 nM); EC50 (read off the curve) (4Ig-B7H3 [14]): ~0.005 mg/L; Kd (wild type 2Ig-B7H3-mFc [15]): 0.74 nM; koff (wild type 2Ig-B7H3-mFc [15]): 3.51e-05 s⁻¹; kon (wild type 2Ig-B7H3-mFc [15]): 47400 M⁻¹ s⁻¹ |
| 1.3 | 7.08e-05 | 59200 | – | – | – | – | 0.82 | 5.59e-05 | 67800 | – | – | – | 0.16 | 9 | hu8H9 5.1 IgG1 (antibody, V domains shown, also called clone 5.1) VH: QVQLVQSGAEVVKPGASVKVSCKTSGYTFTNYDINWVRQRPGQGLEWIGWIFPGDDSTQYNEKFKGRVTMTTDTSTSTVYMELSSLRSEDTAVYFCARQTTGTWFAYWGQGTLVTVSS VL: EIVMTQSPATLSVSPGERVTLSCRASQSISDYLYWYQQKSHQAPRLLIKYASQSISGIPARFSGSGSGSEFTLTISSLQPEDFGVYYCQNGHSFPLTFGQGTKLELKR | binding result [16]: no binding |
| – | – | – | 73 | 0.62 | 4.25e-05 | 68900 | – | – | – | 3.7 | 0.000123 | 33500 | 0.1 | 14 | ch8H9 6.1 IgG (ch8H9 + 6 affinity maturation mutations) (antibody, V domains shown) VH: QVQLQQSGAELVKPGASVKLSCKTSGYTFTNYDINWVRQRPGQGLEWIGWIFPGDDSTQYNEKFKGKATLTTDTSSSTAYMQLSRLTSEDSAVYFCARQTTGTWFAYWGQGTLVTVSA VL: DIVMTQSPATLSVTPGDRVTLSCRASQSISDYLYWYQQKSHESPRLLIKYASQSISGIPSRFSGSGSGSDFTLSINSVEPEDVGVYYCQNGHSFPLTFGAGTKLELKR | fold enhancement in binding relative to ch8H9 [9]: 2 to 4 fold; fold enhancement in binding relative to ch8H9 (4Ig-B7H3 [10]): 2 to 4 fold |
| – | – | – | – | – | – | – | – | – | – | – | – | – | – | – | hu8H9 clone S3.3 scFv (scFv, also called Sort3; not shown: FLAG and His tags) scFv: QVQLVQSGAEVVKPGASVKLSCKTSGYTFTNYDINWVRQRPGQGLEWIGWIFPGDGSTQYNEKFKGKATLTTDTSTSTAYMELSSLRSEDTAVYFCARQTTATWFAYWGQGTLVTVSSGGGGSGGGGSGGGGSEIVMTQSPATLSVSPGERVTLSCRASQSISDYLYWYQQKSHESPRLLIKYASQSISGIPARFSGSGSGSEFTLTINSVEPEDVGVYYCQNGHSFPLTFGQGTKLELKR | EC50 (read off the curve) [17]: ~0.2 mg/L; Kd (4Ig-B7H3 [18]): 9.85 nM; koff (4Ig-B7H3 [18]): 0.000244 s⁻¹; kon (4Ig-B7H3 [18]): 24800 M⁻¹ s⁻¹ |
